Assay results published in the supplement of paper PMC10201428.
± gives the standard deviation of the averaged measurements.

How the values were obtained:
[1] = system: VchCAST RNA-guided transposition machinery (E. coli BL21(DE3) host, lacZ target); test: relative integration efficiency (T-LR orientation) vs wild-type transposon end (log2 (normalized fold change)); transposon end mutated: right end (5 bp flank + 75 bp right end); higher = more efficient transposition
In short: (§1)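 A T7-driven effector plasmid encoding a CRISPR array, tniQ-cas8-cas7-cas6 and tnsA-tnsB-tnsC was co-transformed into E. coli BL21(DE3) together with a pUC57 mini-transposon donor holding barcoded pools of 1549 left-end or 1849 right-end variants. Transformants were plated with 0.1 mM IPTG at 37°C for 18 h. Illumina sequencing of PCR-amplified input plasmids and genomic integration junctions gave barcode abundances, and relative integration efficiency is their output/input fold change, normalised to reference barcodes and log-transformed.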

[2] = system: VchCAST RNA-guided transposition machinery (E. coli BL21(DE3) host, lacZ target); test: relative integration efficiency (T-RL orientation) vs wild-type transposon end (log2 (normalized fold change)); transposon end mutated: right end (5 bp flank + 75 bp right end); higher = more efficient transposition
In short: as §1

Sequence | relative integration efficiency (log2) [1] | relative integration efficiency (log2) [2]
ACATTTGTTGATACAACCATAAAATGATAATTACACCCATAAATTGATAATTATCACACCCATAAATTGATATTGCCTCTGTACCGTTCGTATAATGTATGCTATACCAAGTTATTCGCACCGACAC | -0.0326 ± 0.059 | -0.351 ± 0.19
ACATTTGTTGATACAACCATAAAATGATAATTACACCCATAAATTGATAATTATCACACCCATAAATTGATATTGCCTCTGTACCGTTCGTATACGATACATTATACGAAGTTATTCGCACCGACAC | 1.66 ± 0.14 | -1.24 ± 0.29
ACATTTGTTGATACAACCATAAAATGATAATTACACCCATAAATTGATAATTATCACACCCATAAATTGATATTGCCTCTGTACGATCCAGTGATCTCCAAGACGCTGCAAGAGTCCGCACCGACAC | -0.117 ± 0.38 | 0.0556 ± 0.23
ACATTTGTTGATACAACCATAAAATGATAATTACACCCATAAATTGATAATTATCACACCCATAAATTGATATTGCCTCTGTTGACAGCTAGCTCAGTCCTAGGTATAATGCTAGCCGCACCGACAC | 0.147 ± 0.2 | -0.0954 ± 0.038
ACATTTGTTGATACAACCATAAAATGATAATTACACCCATAAATTGATAATTATCACACCCATAAATTGATATTGCCTCTGTTGACGGCTAGCTCAGTCCTAGGTATAGTGCTAGCCGCACCGACAC | -0.517 ± 0.3 | -0.43 ± 0.065
ACATTTGTTGATACAACCATAAAATGATAATTACACCCATAAATTGATAATTATCACACCCATAAATTGATATTGCCTCTGTTGGCGCCCGGCCCTCAGGCCCTGCAGTGAGTTCCAGCACCGACAC | 0.0708 ± 0.019 | 0.121 ± 0.15
ACATTTGTTGATACAACCATAAAATGATAATTACACCCATAAATTGATAATTATCACACCCATAAATTGATATTGCCTCTGTTTATGGCTAGCTCAGTCCTAGGTACAATGCTAGCCGCACCGACAC | -0.0571 ± 0.23 | -0.0948 ± 0.31
ACATTTGTTGATACAACCATAAAATGATAATTACACCCATAAATTGATAATTATCACACCCATAAATTGATATTGCCTCTTAACACCCGTATTACTTCATAATCGTTTGTAATTCAAGCACCGACAC | 1.41 ± 0.25 | -0.169 ± 0.26
ACATTTGTTGATACAACCATAAAATGATAATTACACCCATAAATTGATAATTATCACACCCATAAATTGATATTGCCTCTTCATGCAGATTTGAACAGTAAGTTTACGACATTTTCAGCACCGACAC | 1.32 ± 0.14 | -0.604 ± 0.37
ACATTTGTTGATACAACCATAAAATGATAATTACACCCATAAATTGATAATTATCACACCCATAAATTGATATTGCCTCTTCATGCAGATTTGAACAGTTTCAAATGCTGATTTTCAGCACCGACAC | 0.372 ± 0.19 | 0.29 ± 0.31
ACATTTGTTGATACAACCATAAAATGATAATTACACCCATAAATTGATAATTATCACACCCATAAATTGATATTGCCTCTTCATGGTCTAAACTTCAGTAAGTTTACGACATTTTCAGCACCGACAC | 1.44 ± 0.19 | -0.93 ± 0.4
ACATTTGTTGATACAACCATAAAATGATAATTACACCCATAAATTGATAATTATCACACCCATAAATTGATATTGCCTCTTCATGGTCTAAACTTCAGTCCTGGGCATCAATTTTCAGCACCGACAC | -0.163 ± 0.029 | 0.135 ± 0.16
ACATTTGTTGATACAACCATAAAATGATAATTACACCCATAAATTGATAATTATCACACCCATAAATTGATATTGCCTCTTCATGGTCTAAACTTCAGTTTCAAATGCTGATTTTCAGCACCGACAC | 0.262 ± 0.23 | 0.164 ± 0.26
ACATTTGTTGATACAACCATAAAATGATAATTACACCCATAAATTGATAATTATCACACCCATAAATTGATATTGCCTCTTCATGTGAGCCCAGGCAGTAAGTTTACGACATTTTCAGCACCGACAC | 2.37 ± 0.34 | -1.91 ± 0.27
ACATTTGTTGATACAACCATAAAATGATAATTACACCCATAAATTGATAATTATCACACCCATAAATTGATATTGCCTCTTCATGTGAGCCCAGGCAGTCCTGGGCATCAATTTTCAGCACCGACAC | 0.0484 ± 0.15 | -0.116 ± 0.3
ACATTTGTTGATACAACCATAAAATGATAATTACACCCATAAATTGATAATTATCACACCCATAAATTGATATTGCCTCTTCTTTGCTCACGCATCTAGTCGGTCCACGTTTGGTTCGCACCGACAC | -0.129 ± 0.28 | -0.231 ± 0.37
ACATTTGTTGATACAACCATAAAATGATAATTACACCCATAAATTGATAATTATCACACCCATAAATTGATATTGCCTCTTTATGCAGGACGACGTACGCGTTCCATATAAACCTGTGCACCGACAC | -0.104 ± 0.19 | 0.021 ± 0.25
ACATTTGTTGATACAACCATAAAATGATAATTACACCCATAAATTGATAATTATCACACCCATAAATTGATATTGCCTCTTTGTGAGCGGATAACAAGATCATAGTCAGACCAACATGCACCGACAC | -0.434 ± 0.17 | -0.26 ± 0.07
